Target: endogenous Maf1 (human (endogenous in HeLa)) (UniProt Q9H063)
Assay: co-IP; HeLa (cell line 9-8) whole cell extract, immunoprecipitation with anti-Maf1 or anti-GAPDH antibodies; immunoblot with anti-RPC1, anti-Brf1, anti-Maf1

Sequence of endogenous Maf1 (human (endogenous in HeLa)) (Q9H063 whole entry): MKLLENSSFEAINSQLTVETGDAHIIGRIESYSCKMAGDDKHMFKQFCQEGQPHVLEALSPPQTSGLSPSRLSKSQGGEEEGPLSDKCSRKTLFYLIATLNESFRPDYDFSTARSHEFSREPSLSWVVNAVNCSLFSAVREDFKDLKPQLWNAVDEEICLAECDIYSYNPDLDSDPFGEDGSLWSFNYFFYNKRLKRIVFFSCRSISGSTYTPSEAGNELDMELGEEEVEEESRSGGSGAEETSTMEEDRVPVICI

Work on “RPC1, the largest subunit of pol III (endogenous, HeLa) (from UniProt O14802 1-1390) (natural protein)” yielded a percent of RPC1 co-immunoprecipitated of 6%.
